Source: the RNAGym collection of RNA variant scans (doi:10.1093/molbev/msab373)

B1: Azoarcus group I ribozyme (parent)
chain: GUGCCUUGCGCCGGGAAACCACGCAAGGGAUGGUGUCAAAUUCGGCGAAACCUAAGCGCCCGCCCGGGCGUAUGGCAACGCCGAGCCAAGCUUCGGCGCCUGCGCCGAUGAAGGUGUAGAGACUAGACGGCACCCACCUAAGGCAAACGCUAUGGUGAAGGCAUAGUCCAGGGAGUGGCGAAAGUCACACAAACCGG

Variants of: B1
Assay: reverse-splicing fitness (ratio to wild type); higher = more active; in vitro selection; Mg2+ level not given
Method in brief: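 An in vitro group I ribozyme library with randomized positions was T7-transcribed and gel-purified. In triplicate, 10 pmol RNA in EPPS pH 7.5 was reacted with 50 pmoles of a 30-nt RNA substrate for 1 h at 37 °C across several added MgCl2 levels (1–48 mM), then stopped with EDTA. Products were reverse transcribed from a substrate-complementary primer, PCR-amplified and sequenced (HiSeq 4000). Fitness is a variant's read proportion after selection over that before, normalised to wild type.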
For GUGCCUUGCGCCGGGAAACCACGCAAGGGAUGGUGUCAAAUUCGGCGAAACCUAAGCGCCCGCCCGGGCGUAUGGCAACGCGGAGCCAAGCUUCGGCGCCUGCGCCGAUGUAGGUGUAGCGACUAGACGGCACCCACCUAAGGCUAACGAUAUGGUGAAGGCAUAGUCCAGGGAGUGGCGAAAGUCACACAAACCGG [C82G A111U A120C A145U C150A], the reverse-splicing fitness was 0.0104. GUGCCUUGCGCCGGGAAACCACGCAAGGGAUGGUGUCAAAUUCGGCGAAACCUAAGCGCCCGCCCGGGCGUAUGGCAACGCGGAGCCAAGCUUCGGCGCCUGCGCCGAUGUAGGUGUAGCGACUAGACGGCACCCACCUAAGGCUAACGGUAUGGUGAAGGCAUAGUCCAGGGAGUGGCGAAAGUCACACAAACCGG [C82G A111U A120C A145U C150G] gave a reverse-splicing fitness of 0.0103. For GUGCCUUGCGCCGGGAAACCACGCAAGGGAUGGUGUCAAAUUCGGCGAAACCUAAGCGCCCGCCCGGGCGUAUGGCAACGCGGAGCCAAGCUUCGGCGCCUGCGCCGAUGUAGGUGUAGCGACUAGACGGCACCCACCUAAGGCGAACGCUAUGGUGAAGGCAUAGUCCAGGGAGGGGCGAAAGUCACACAAACCGG [C82G A111U A120C A145G U176G], the reverse-splicing fitness was 0.00743. GUGCCUUGCGCCGGGAAACCACGCAAGGGAUGGUGUCAAAUUCGGCGAAACCUAAGCGCCCGCCCGGGCGUAUGGCAACGCGGAGCCAAGCUUCGGCGCCUGCGCCGAUGUAGGUGUAGCGACUAGACGGCACCCACCUAAGGCGAACGCUAUGGUGAAGGCAUAGUCCAGGGAGAGGCGAAAGUCACACAAACCGG [C82G A111U A120C A145G U176A] gave a reverse-splicing fitness of 0.0173. In the case of GUGCCUUGCGCCGGGAAACCACGCAAGGGAUGGUGUCAAAUUCGGCGAAACCUAAGCGCCCGCCCGGGCGUAUGGCAACGCGGAGCCAAGCUUCGGCGCCUGCGCCGAUGUAGGUGUAGCGACUAGACGGCACCCACCUAAGGCGAACGCUAUGGUGAAGGCAUAGUCCAGGGAGCGGCGAAAGUCACACAAACCGG [C82G A111U A120C A145G U176C], the reverse-splicing fitness is reported as 0.0311. GUGCCUUGCGCCGGGAAACCACGCAAGGGAUGGUGUCAAAUUCGGCGAAACCUAAGCGCCCGCCCGGGCGUAUGGCAACGCGGAGCCAAGCUUCGGCGCCUGCGCCGAUGUAGGUGUAGCGACUAGACGGCACCCACCUAAGGCGAACGCUAUGGUGAAGGCAUAGUCUAGGGAGCGGCGAAAGUCACACAAACCGG [C82G A111U A120C A145G C169U U176C] showed a reverse-splicing fitness of 0.0156. Work on GUGCCUUGCGCCGGGAAACCACGCAAGGGAUGGUGUCAAAUUCGGCGAAACCUAAGCGCCCGCCCGGGCGUAUGGCAACGCGGAGCCAAGCUUCGGCGCCUGCGCCGAUGUAGGUGUAGCGACUAGACGGCACCCACCUAAGGCGAACGCUAUGGUGAAGGCAUAGUCUAGGGAGGGGCGAAAGUCACACAAACCGG [C82G A111U A120C A145G C169U U176G] yielded a reverse-splicing fitness of 0.00528. GUGCCUUGCGCCGGGAAACCACGCAAGGGAUGGUGUCAAAUUCGGCGAAACCUAAGCGCCCGCCCGGGCGUAUGGCAACGCGGAGCCAAGCUUCGGCGCCUGCGCCGAUGUAGGUGUAGCGACUAGACGGCACCCACCUAAGGCGAACGCUAUGGUGAAGGCAUAGUCUAGGGAGAGGCGAAAGUCACACAAACCGG [C82G A111U A120C A145G C169U U176A] gave a reverse-splicing fitness of 0.0138. With GUGCCUUGCGCCGGGAAACCACGCAAGGGAUGGUGUCAAAUUCGGCGAAACCUAAGCGCCCGCCCGGGCGUAUGGCAACGCGGAGCCAAGCUUCGGCGCCUGCGCCGAUGUAGGUGUAGCGACUAGACGGCACCCACCUAAGGCGAACGCUAUGGUGAAGGCAUAGUCUAGGGAGUGGCGAAAGUCACACAAACCGG [C82G A111U A120C A145G C169U] the reverse-splicing fitness was 0.0141. Variant GUGCCUUGCGCCGGGAAACCACGCAAGGGAUGGUGUCAAAUUCGGCGAAACCUAAGCGCCCGCCCGGGCGUAUGGCAACGCGGAGCCAAGCUUCGGCGCCUGCGCCGAUGUAGGUGUAGCGACUAGACGGCACCCACCUAAGGCUAACGAUAUGGUGAAGGCAUAGUCGAGGGAGUGGCGAAAGUCACACAAACCGG [C82G A111U A120C A145U C150A C169G] has a reverse-splicing fitness of 0.00901. Variant GUGCCUUGCGCCGGGAAACCACGCAAGGGAUGGUGUCAAAUUCGGCGAAACCUAAGCGCCCGCCCGGGCGUAUGGCAACGCGGAGCCAAGCUUCGGCGCCUGCGCCGAUGUAGGUGUAGCGACUAGACGGCACCCACCUAAGGCUAACGAUAUGGUGAAGGCAUAGUCAAGGGAGUGGCGAAAGUCACACAAACCGG [C82G A111U A120C A145U C150A C169A] has a reverse-splicing fitness of 0.0103. Variant GUGCCUUGCGCCGGGAAACCACGCAAGGGAUGGUGUCAAAUUCGGCGAAACCUAAGCGCCCGCCCGGGCGUAUGGCAACGCGGAGCCAAGCUUCGGCGCCUGCGCCGAUGUAGGUGUAGCGACUAGACGGCACCCACCUAAGGCUAACGAUAUGGUGAAGGCAUAGUCUAGGGAGUGGCGAAAGUCACACAAACCGG [C82G A111U A120C A145U C150A C169U] has a reverse-splicing fitness of 0.00991. GUGCCUUGCGCCGGGAAACCACGCAAGGGAUGGUGUCAAAUUCGGCGAAACCUAAGCGCCCGCCCGGGCGUAUGGCAACGCGGAGCCAAGCUUCGGCGCCUGCGCCGAUGUAGGUGUAGCGACUAGACGGCACCCACCUAAGGCUAACGAUAUGGUGAAGGCAUAGUCGAGGGAGGGGCGAAAGUCACACAAACCGG [C82G A111U A120C A145U C150A C169G U176G] gave a reverse-splicing fitness of 0.00638. In the case of GUGCCUUGCGCCGGGAAACCACGCAAGGGAUGGUGUCAAAUUCGGCGAAACCUAAGCGCCCGCCCGGGCGUAUGGCAACGCGGAGCCAAGCUUCGGCGCCUGCGCCGAUGUAGGUGUAGCGACUAGACGGCACCCACCUAAGGCUAACGAUAUGGUGAAGGCAUAGUCGAGGGAGAGGCGAAAGUCACACAAACCGG [C82G A111U A120C A145U C150A C169G U176A], the reverse-splicing fitness is reported as 0.0207. GUGCCUUGCGCCGGGAAACCACGCAAGGGAUGGUGUCAAAUUCGGCGAAACCUAAGCGCCCGCCCGGGCGUAUGGCAACGCGGAGCCAAGCUUCGGCGCCUGCGCCGAUGUAGGUGUAGCGACUAGACGGCACCCACCUAAGGCUAACGAUAUGGUGAAGGCAUAGUCGAGGGAGCGGCGAAAGUCACACAAACCGG [C82G A111U A120C A145U C150A C169G U176C] showed a reverse-splicing fitness of 0.0247.
